The data set concerns the target RR_1586 D50G (Clostridioides difficile R20291, UniProt A0A9R0BKD1 1-223, D50G). The data set can be described thus: EMSA; 10 mM Mg2+; phosphoramidate; EMSA: 5 pmol DNA in 10 ul (500 nM), 10 mM Tris pH 8, 50 mM NaCl, 10 mM MgCl2, room temperature 10 min; 10% PAGE 0.5x TBE on ice, ethidium bromide. As to conditions: protein: recombinant; tags: His6; chain copies: 2; blunt.

B1: CDR20291_1583 site (dsDNA)
DNA 1: AGGAATTAAGGAGCAATTAAATGATG
DNA 2: CATCATTTAATTGCTCCTTAATTCCT
B1: the binding result was “binds”.

The values above are taken from PMC6222199, “Regulatory Targets of the Response Regulator RR_1586 from Clostridioides difficile Identified Using a Bacterial One-Hybrid Screen”.
